This note sets out measurements from US10618965 (dated 2020).

A word on the Kd: it is the free concentration of one partner at which half of the binding sites on the other are occupied at equilibrium, for simple one-to-one binding. Read a high Kd as a looser complex.

What all share (assay): SPR
In general terms: Surface plasmon resonance follows binding to a sensor surface in real time, without labels.

In one experiment the target is T1, human FcgRIIb (human).
T1 chain: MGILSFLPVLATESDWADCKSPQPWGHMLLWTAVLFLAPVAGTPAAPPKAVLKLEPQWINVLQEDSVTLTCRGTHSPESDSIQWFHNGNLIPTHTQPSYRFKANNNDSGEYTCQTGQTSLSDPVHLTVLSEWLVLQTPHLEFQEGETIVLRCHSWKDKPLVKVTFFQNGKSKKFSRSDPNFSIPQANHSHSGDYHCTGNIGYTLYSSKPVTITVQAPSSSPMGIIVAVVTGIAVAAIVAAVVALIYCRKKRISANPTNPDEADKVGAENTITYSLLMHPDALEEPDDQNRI

Another experiment concerns the target T2, human FcgRIIa(R) (human).
T2 chain: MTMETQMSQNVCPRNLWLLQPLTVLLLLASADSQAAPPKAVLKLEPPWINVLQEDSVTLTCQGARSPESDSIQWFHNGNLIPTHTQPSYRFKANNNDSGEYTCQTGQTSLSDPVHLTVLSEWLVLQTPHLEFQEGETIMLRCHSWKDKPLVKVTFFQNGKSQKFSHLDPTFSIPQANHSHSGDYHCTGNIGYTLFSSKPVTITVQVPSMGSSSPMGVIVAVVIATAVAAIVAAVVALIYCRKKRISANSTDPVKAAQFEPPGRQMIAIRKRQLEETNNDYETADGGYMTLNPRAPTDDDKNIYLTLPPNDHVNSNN

The target in another experiment is human FcgRIa (human).
Sequence of human FcgRIa (human) (chain, as listed by the source): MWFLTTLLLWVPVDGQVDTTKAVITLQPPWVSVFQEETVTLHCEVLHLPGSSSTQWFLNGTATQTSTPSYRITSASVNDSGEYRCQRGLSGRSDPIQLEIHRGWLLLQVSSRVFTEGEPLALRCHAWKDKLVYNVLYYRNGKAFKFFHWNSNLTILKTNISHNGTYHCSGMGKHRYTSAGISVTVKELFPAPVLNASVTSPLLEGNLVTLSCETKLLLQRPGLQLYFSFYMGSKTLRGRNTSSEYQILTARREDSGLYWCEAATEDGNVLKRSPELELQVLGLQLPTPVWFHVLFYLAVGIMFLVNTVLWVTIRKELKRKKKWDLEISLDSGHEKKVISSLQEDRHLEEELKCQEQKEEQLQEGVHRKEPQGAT

B1: IL6R-BP084 (antibody)
chain 1: QVQLQESGPGLVKPSETLSLTCAVSGHSISHDHAWSWVRQPPGEGLEWIGFISYSGITNYNPSLQGRVTISRDNSKNTLYLQMNSLRAEDTAVYYCARSLARTTAMDYWGEGTLVTVSSASTKGPSVFPLAPSSKSTSGGTAALGCLVKDYFPEPVTVSWNSGALTSGVHTFPAVLQSSGLYSLSSVVTVPSSSLGTQTYICNVNHKPSNTKVDKKVEPKSCDKTHTCPPCPAPELLGGDSVFLFPPKPKDTLMISRTPEVTCVVVDVSHEDPEVKFNWYVDGVEVHNAKTKPREEQYNSTYRVVSVLTVLHQDWLNGKEYKCKMSNKALPKPIEKTISKAKGQPREPQVYTLPPSRDELTKNQVSLTCLVKGFYPSDIAVEWESNGQPENNYKTTPPVLDSDGSFFLYSKLTVDKSRWQQGNVFSCSVMHEALHNHYTQESLSLSP
chain 2: DIQMTQSPSSLSASVGDRVTITCRASQDISSYLNWYQQKPGKAPKLLIYYTSRLHSGVPSRFSGSGSGTDFTFTISSLQPEDIATYYCQQGNTLPYTFGQGTKVEIK
As to B1, the Kd with human FcgRIIb amounted to 500 nM; in the experiment with human FcgRIIa(R), 7200 nM; in the experiment with human FcgRIa it was 7 nM.

B2: IL6R-BP150 (antibody)
chain 1: QVQLQESGPGLVKPSETLSLTCAVSGHSISHDHAWSWVRQPPGEGLEWIGFISYSGITNYNPSLQGRVTISRDNSKNTLYLQMNSLRAEDTAVYYCARSLARTTAMDYWGEGTLVTVSSASTKGPSVFPLAPSSKSTSGGTAALGCLVKDYFPEPVTVSWNSGALTSGVHTFPAVLQSSGLYSLSSVVTVPSSSLGTQTYICNVNHKPSNTKVDKKVEPKSCDKTHTCPPCPAPEYLGDDSVFLFPPKPKDTLMISRTPEVTCVVVDVSHEDPEVKFNWYVDGVEVHNAKTKPREEQYNSTYRVVSVLTVLHQDWLNGKEYKCKVSNAALPKPIEKTISKAKGQPREPQVYTLPPSRDELTKNQVSLTCLVKGFYPSDIAVEWESNGQPENNYKTTPPVLDSDGSFFLYSKLTVDKSRWQQGNVFSCSVMHEALHNHYTQESLSLSP
chain 2: DIQMTQSPSSLSASVGDRVTITCRASQDISSYLNWYQQKPGKAPKLLIYYTSRLHSGVPSRFSGSGSGTDFTFTISSLQPEDIATYYCQQGNTLPYTFGQGTKVEIK
As for B2, the values for the dissociation constant Kd with human FcgRIIb and with human FcgRIa were 31 nM and 320 nM, respectively.

B3: IL6R-2B261 (antibody)
chain 1: QVQLQESGPGLVKPSETLSLTCAVSGHSISHDHAWSWVRQPPGEGLEWIGFISYSGITNYNPSLQGRVTISRDNSKNTLYLQMNSLRAEDTAVYYCARSLARTTAMDYWGEGTLVTVSSASTKGPSVFPLAPSSKSTSGGTAALGCLVKDYFPEPVTVSWNSGALTSGVHTFPAVLQSSGLYSLSSVVTVPSSSLGTQTYICNVNHKPSNTKVDKKVEPKSCDKTHTCPPCPAPDLLGGDSVFLFPPKPKDTLMISRTPEVTCVVVDVSHEDPEVKFNWYVDGVEVHNAKTKPREEQDNSTYRVVSVLTVLHQDWLNGKEYKCKVSNKALPAPIEKTISKAKGQPREPQVYTLPPSRDELTKNQVSLTCLVKGFYPSDIAVEWESNGQPENNYKTTPPVLDSDGSFFLYSKLTVDKSRWQQGNVFSCSVMHEALHNHYTQESLSLSP
chain 2: DIQMTQSPSSLSASVGDRVTITCRASQDISSYLNWYQQKPGKAPKLLIYYTSRLHSGVPSRFSGSGSGTDFTFTISSLQPEDIATYYCQQGNTLPYTFGQGTKVEIK
With B3, the Kd with human FcgRIIb came out at 1000 nM; with human FcgRIa, 9 nM.

B4: IL6R-BP182 (antibody)
chain 1: QVQLQESGPGLVKPSETLSLTCAVSGHSISHDHAWSWVRQPPGEGLEWIGFISYSGITNYNPSLQGRVTISRDNSKNTLYLQMNSLRAEDTAVYYCARSLARTTAMDYWGEGTLVTVSSASTKGPSVFPLAPSSKSTSGGTAALGCLVKDYFPEPVTVSWNSGALTSGVHTFPAVLQSSGLYSLSSVVTVPSSSLGTQTYICNVNHKPSNTKVDKKVEPKSCDKTHTCPPCPAPDLLGGDSVFLFPPKPKDTLMISRTPEVTCVVVDVSHEDGEVKFNWYVDGVEVHNAKTKPREEQDNSTYRVVSVLTVLHQDWLNGKEYKCKVSNKALPKPIEKTISKAKGQPREPQVYTLPPSRDELTKNQVSLTCLVKGFYPSDIAVEWESNGQPENNYKTTPPVLDSDGSFFLYSKLTVDKSRWQQGNVFSCSVMHEALHNHYTQESLSLSP
chain 2: DIQMTQSPSSLSASVGDRVTITCRASQDISSYLNWYQQKPGKAPKLLIYYTSRLHSGVPSRFSGSGSGTDFTFTISSLQPEDIATYYCQQGNTLPYTFGQGTKVEIK
As to B4, the Kd with human FcgRIIa(R) stood at 2600 nM; in the experiment with human FcgRIa, 10 nM.

B5: IL6R-BP083 (antibody)
chain 1: QVQLQESGPGLVKPSETLSLTCAVSGHSISHDHAWSWVRQPPGEGLEWIGFISYSGITNYNPSLQGRVTISRDNSKNTLYLQMNSLRAEDTAVYYCARSLARTTAMDYWGEGTLVTVSSASTKGPSVFPLAPSSKSTSGGTAALGCLVKDYFPEPVTVSWNSGALTSGVHTFPAVLQSSGLYSLSSVVTVPSSSLGTQTYICNVNHKPSNTKVDKKVEPKSCDKTHTCPPCPAPELLGGDSVFLFPPKPKDTLMISRTPEVTCVVVDVSHEDPEVKFNWYVDGVEVHNAKTKPREEQDNSTYRVVSVLTVLHQDWLNGKEYKCKVSNKALPKPIEKTISKAKGQPREPQVYTLPPSRDELTKNQVSLTCLVKGFYPSDIAVEWESNGQPENNYKTTPPVLDSDGSFFLYSKLTVDKSRWQQGNVFSCSVMHEALHNHYTQESLSLSP
chain 2: DIQMTQSPSSLSASVGDRVTITCRASQDISSYLNWYQQKPGKAPKLLIYYTSRLHSGVPSRFSGSGSGTDFTFTISSLQPEDIATYYCQQGNTLPYTFGQGTKVEIK
With B5, the Kd with human FcgRIIb worked out at 790 nM; in the experiment with human FcgRIa, 3.6 nM.

B6: IL6R-BP133 (antibody)
chain 1: QVQLQESGPGLVKPSETLSLTCAVSGHSISHDHAWSWVRQPPGEGLEWIGFISYSGITNYNPSLQGRVTISRDNSKNTLYLQMNSLRAEDTAVYYCARSLARTTAMDYWGEGTLVTVSSASTKGPSVFPLAPSSKSTSGGTAALGCLVKDYFPEPVTVSWNSGALTSGVHTFPAVLQSSGLYSLSSVVTVPSSSLGTQTYICNVNHKPSNTKVDKKVEPKSCDKTHTCPPCPAPDYLGGDSVFLFPPKPKDTLMISRTPEVTCVVVDVSHEDPEVKFNWYVDGVEVHNAKTKPREEQYNSTYRVVSVLTVLHQDWLNGKEYKCKVSNKALPKPIEKTISKAKGQPREPQVYTLPPSRDELTKNQVSLTCLVKGFYPSDIAVEWESNGQPENNYKTTPPVLDSDGSFFLYSKLTVDKSRWQQGNVFSCSVMHEALHNHYTQESLSLSP
chain 2: DIQMTQSPSSLSASVGDRVTITCRASQDISSYLNWYQQKPGKAPKLLIYYTSRLHSGVPSRFSGSGSGTDFTFTISSLQPEDIATYYCQQGNTLPYTFGQGTKVEIK
Regarding B6, the Kd with human FcgRIIb came out at 560 nM; with human FcgRIa it was 130 nM.

B7: IL6R-2B253 (antibody)
chain 1: QVQLQESGPGLVKPSETLSLTCAVSGHSISHDHAWSWVRQPPGEGLEWIGFISYSGITNYNPSLQGRVTISRDNSKNTLYLQMNSLRAEDTAVYYCARSLARTTAMDYWGEGTLVTVSSASTKGPSVFPLAPSSKSTSGGTAALGCLVKDYFPEPVTVSWNSGALTSGVHTFPAVLQSSGLYSLSSVVTVPSSSLGTQTYICNVNHKPSNTKVDKKVEPKSCDKTHTCPPCPAPDLLGGDSVFLFPPKPKDTLMISRTPEVTCVVVDVSHEDPEVKFNWYVDGVEVHNAKTKPREEQYNSTYRVVSVLTVLHQDWLNGKEYKCKMSNKALPAPIEKTISKAKGQPREPQVYTLPPSRDELTKNQVSLTCLVKGFYPSDIAVEWESNGQPENNYKTTPPVLDSDGSFFLYSKLTVDKSRWQQGNVFSCSVMHEALHNHYTQESLSLSP
chain 2: DIQMTQSPSSLSASVGDRVTITCRASQDISSYLNWYQQKPGKAPKLLIYYTSRLHSGVPSRFSGSGSGTDFTFTISSLQPEDIATYYCQQGNTLPYTFGQGTKVEIK
With B7, the Kd with human FcgRIIa(R) turned out to be 5000 nM; with human FcgRIa it was 1.4 nM.
